Experiment [1] deals with primary inguinal fat cells. The experiment is described as follows: Cellular oxygen consumption measured by Seahorse. It is filed as cell-based, Mus musculus. The conditions noted are these: recombinant Slit2-C 1 ug/mL (Calico/AbbVie), acute or 2 h treatment; FIG. 13. How it is done:
Tissue respiration was performed using a Clark electrode (Stathkelvin Instruments). Freshly isolated tissues were dissected from mice treated with LacZ or Slit2-C adenovirus for 7 days. Equally sized pieces of tissue were minced and placed in respiration buffer containing PBS supplemented with 2% (w/v) bovine serum albumin, 1% (w/v) glucose, and 1 mM Na pyruvate. Oxygen (O2) consumption was normalized to tissue weight. Cellular oxygen consumption rates were determined using an XF24 Extracellular Flux Analyzer (Seahorse Biosciences). Primary brown fat adipocytes were seeded at 15,000 cells/well, differentiation was induced the following day as previously described, and the cells were analyzed on day 5. On the day of analysis, the cells were washed once with Seahorse respiration buffer (8.3 g/l DMEM, 1.8 g/l NaCl, 1 mM pyruvate, 20 mM glucose, pen/strep), placed in 0.5 ml Seahorse respiration buffer, and incubated in a C02-free incubator for 1 hr. […]
As described above in Examples 5-7, in vitro and in vivo data on respiration using Slit2-C adenovirus overexpression models and loss-of-function analyses in Seahorse assays are described. In vitro confirmation of the results was determined using an alternative source of recombinant Slit2-C (FIG. 13). […] Cellular oxygen consumption rates were determined as described in Example 1 Statistical analysis was performed as described in Example 1C above.

In experiment [2] the test system is inguinal white fat tissue and brown fat tissue. Nature of the experiment: Tissue respiration (Clark electrode) of minced adipose tissue. It counts as in vivo, Mus musculus. Conditions: day 7 after adenovirus injection. The procedure:
Tissue respiration was performed using a Clark electrode (Stathkelvin Instruments). Freshly isolated tissues were dissected from mice treated with LacZ or Slit2-C adenovirus for 7 days. Equally sized pieces of tissue were minced and placed in respiration buffer containing PBS supplemented with 2% (w/v) bovine serum albumin, 1% (w/v) glucose, and 1 mM Na pyruvate. Oxygen (O2) consumption was normalized to tissue weight. Cellular oxygen consumption rates were determined using an XF24 Extracellular Flux Analyzer (Seahorse Biosciences). Primary brown fat adipocytes were seeded at 15,000 cells/well, differentiation was induced the following day as previously described, and the cells were analyzed on day 5. On the day of analysis, the cells were washed once with Seahorse respiration buffer (8.3 g/l DMEM, 1.8 g/l NaCl, 1 mM pyruvate, 20 mM glucose, pen/strep), placed in 0.5 ml Seahorse respiration buffer, and incubated in a C02-free incubator for 1 hr. Port injection solutions were prepared as follows: oligomycin (1 μM final concentration), norepinephrine (1 μM final concentration), FCCP (0.2 μM final concentration), and rotenone (3 μM final concentration). Each cycle consisted of the following: mix 4 min, wait 0 min, and measure 2 min. Data are presented as S.E.M.

Experiment [3] has as its system primary brown fat cells. Nature of the experiment: Thermogenic gene expression in primary brown fat cells with adenoviral overexpression. It counts as cell-based, Mus musculus. Conditions: Slit2-C vs LacZ virus, day 7; FIG. 6B. The procedure: Inguinal and brown stromal-vascular fractions were obtained from 6 weeks old male or newborn mice (postnatal days 5-10) for white and brown fat cultures, respectively. Inguinal fat tissue was dissected and washed with PBS, minced and digested for 45 min at 37° C. in PBS containing 10 mM CaCl2), 2.4 U/ml dispase II (Roche) and 10 mg/ml collagenase D (Roche). Brown fat tissue was dissected, washed with PBS, minced and digested for 45 min at 37° C. in PBS containing 1.3 mM CaCl2, 123 mM NaCl, 5 mM KCl, 5.0 mM glucose, 100 mM HEPES, 4% BSA and 1.5 mg/ml collagenase B (Roche). Digested tissue was filtered through a 100-μm cell strainer and centrifuged at 600 g for 10 min. […] For adenoviral overexpression of Slit2-FL, Slit2-N, Slit2-C, LacZ or Cre, virus was added at day 2 of differentiation at a titer of 10^8 particles/well and cells were analyzed at day 6-7. […]
RNA was extracted from cultured cells or frozen tissue samples using TRIzol®, purified with QIAGEN RNeasy® minicolumns. Normalized RNA was reversed transcribed using a high-capacity cDNA reverse transcription lot (Applied Biosystems) and cDNA was analyzed by qRT-CPR. Relative mRNA levels were calculated using the comparative CT method and normalized to cyclophilin […]. […]

B1: Slit2-C: ~50 kDa C-terminal cleavage fragment of Slit2 beginning at TSP (SEQ ID NO: 22); adenovirally expressed or purified FLAG-tagged protein (protein, listed as Homo sapiens)
chain: TSPCDNFDCQNGAQCIIRINEPICQCLPGYLGEKCEKLVSVNFVNKESYLQIPSAKVRPQTNITLQIATDEDSGILLYKGDKDHIAVELYRGRVRASYDTGSHPASAIYSVETINDGNFHIVELLTLDSSLSLSVDGGSPKVITNLSKQSTLNFDSPLYVGGMPGKNNVASLRQAPGQNGTSFHGCIRNLYINSELQDFRKMPMQTGILPGCEPCHKKVCAHGMCQPSSQSGFTCECEEGWMGPLCDQRTNDPCLGNKCVHGTCLPINAFSYSCKCLEGHGGVLCDEEEDLFNPCQMIKCKHGKCRLSGVGQPYCECNSGFTGDSCDREISCRGERIRDYYQKQQGYAACQTTKKVSRLECRGGCAGGQCCGPLRSKRRKYSFECTDGSSFVDEVEKVVKCGCARCAS
modifications: FLAG tag
notes: adenovirally expressed or purified FLAG-tagged protein
Regarding B1, the “cellular oxygen consumption vs results of Examples 5-7” value in experiment [1] was “confirm the results”. In experiment [2] (did not reach significance), the “O2 consumption of inguinal tissue” value is reported as “elevated”. For the same molecule, the “O2 consumption of BAT” value in experiment [2] (reached significance) is recorded as “elevated”. For the same molecule, the “thermogenic gene expression response of primary brown fat cells” value in experiment [3] is “responded stronger”.

The record behind these values is US12702694B2, “Methods for identification, assessment, prevention, and treatment of metabolic disorders using SLIT2” (Dana-Farber Cancer Institute, Inc., priority 2015, dated 2026).
